From the supplement of paper PMC9170038

System: K4 kissing-loop RNA reporter
Assay: apparent KD of K4 kissing-loop reporter; higher = weaker reporter binding
Conditions: Eterna round: R107
Procedure: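 RNA-MaP round R107: designed RNA switches with theophylline, tryptophan, arginine or FMN aptamers are transcribed on-chip within common flanks. They are titrated with a labelled K4 kissing-loop RNA reporter in RNA-MaP buffer (100 mM Tris pH 7.5, 80 mM KCl, 4 mM MgCl2), without ligand or with the indicated ligand. Median apparent KD per design.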

[1] = input ligand: theophylline 20 uM
[2] = input ligand: tryptophan 2.4 mM
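Note: bound reporter read as fluorescence of individual clusters on recovered sequencing chips by microscopy, with normalized cluster intensities fitted with a binding model.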

Row | Sequence | apparent KD of K4 kissing-loop reporter (input ligand: FMN 200 uM) [nM] | apparent KD of K4 kissing-loop reporter (input ligand: arginine 13.2 mM) [nM] | apparent KD of K4 kissing-loop reporter (input ligand: none) [nM] | apparent KD of K4 kissing-loop reporter [1] [nM] | apparent KD of K4 kissing-loop reporter [2] [nM]
1 | UCCACGCUUAGAGGAUAUCGGAUUAGAGUGAUGUUCUAAAGAAGCCCAGUGAUGUUGGAUGGUAUACGAGAAGGCUGAGGCGUGG [Same State FMN B GF 3] | 229 | 629 | 725 | 588 | 492
2 | UCCUGCAAUCGGCCACGAAAGUGGAUGGAUACCAGAGUCGAAAGACUCCCUUGGCAGCCAGUGAUGUUGGAAGCAGGUAAAUAAA | 838 | 499 | 470 | 538 | 505
3 | UCCUGCAAUCGUCCACGAAAGUGGAUUGAUACCAGAGUCGAAAGACUCCCUUGGCAGCGAGUGAUGUUCGAAGCAGGUAAAUAAA | 432 | 365 | 417 | 363 | 337
4 | UCCUGCAAUCUACCACGAAAGUGGAUGGAUACCAGAGUCGAAAGACUCCCUUGGCAGCCAGUGAUGUUGGAGCAGGUAAAAUAAA | 670 | 462 | 638 | 514 | 529
5 | UCGGACCCUGGAGGAUAUGAGUCGAGUGAUGUUUGGCGGUCCAUGCCGGUGCGGCGUUAUGCCCUUUUAGAAGGCCAGGGUCCGA [#2 Exclusion - FMN B Attempt #13 (HarryS)] | 287 | 182 | 307 | 351 | 289
6 | UCUGCAAAGUCGGCCGCCACUCCGGGCCCUAUAAAUGGGCGCAGUGAUGUUGCGGCUAGGCCUCUGAGGACCGGGACUUUAUAGA [Anarisgema] | 37.4 | 45.8 | 184 | 88.3 | 175
7 | UCUGGAGUAUAUGAUACCAGCAGUGAGAGACAGGAAGUAUAGUGAUGUUAUAUGAGAGAAUGCCCUUGGCAGCGUGUGCGGUGGG [SSTheophylB.R] | 94.3 | 85 | 71.1 | 106 | 62.7
8 | UCUUGUUCAUAGUGAUGUUAUGAGCUUAGAAAGGAUAUGAUCAACAUCAGAAGGUUCAAGGAUUCCCGACUCCAACUUCGGUUUC [theeternabot_sameState_KL_FMN_A_43] | 280 | 270 | 306 | 339 | 332
9 | UGACGUUUGGGAAGGAGCGGAAUGUAAUACGGAGCGCGUGGAGAUGCAGUGAUGUUGCAGAUCCAGGUAGGUCGCCCAAGGGACG [Zati] | 95.3 | 83.5 | 80.9 | 79.3 | 79.6
10 | UGACUGGAUGGAAGGAGCGCUAAACUCCUAGUGAUGUUAGGGACACGAGACAAAGUCUCGAGGCAGGUAGGUCGCCAUCUAGUCU [FiskerMod 7 - Jieux - Same State - Arginine B] | 225 | 198 | 197 | 250 | 212
11 | UGACUGGAUGGAAGGAGCGCUAAACUCCUAGUGAUGUUAGGGAUAUGAGGCAAAGCCUCGAAGCAGGUAGGUCGCCAUCUAGUCU [FiskerMod 20 - Jieux - Same State - Arginine B] | 159 | 114 | 148 | 160 | 156
12 | UGAUACCAGACGGCCGCCACUCCUGCAAGUCAAAGACUUGCUAAGGAAAUCGUCCAGUGAUGUUGGAGGACCGGGUCUGGUAUCU [TrypBX 17 #SwitchBubble #Palindromic #StaticStem] | 931 | 670 | 830 | 717 | 899
13 | UGAUAGGACAGAAGGAGCGGAAGUGAUGUUUCCAAAAGGGAAGGUCGACAAAGUCGACCCUUCCAGGUAGGUCGCUGUCCUAUCU [ArgBX 9 #Palindromic #SwitchBubble #StaticStem] | 75.9 | 72.5 | 73.9 | 86.1 | 68.7
14 | UGAUAGGACAGAAGGAGCGGCAGUGAUGUUGCCAAAAGGUUAAGGUGUCAAAAGACACCCUGCCAGGUAGGUCGCUGUCCUAUCU | 202 | 236 | 212 | 214 | 208
15 | UGAUAGGACAGAAGGAGCGGUAGUGAUGUUACCAAAAGGAUAAGGUGUCAAAAGACACCCUGCCAGGUAGGUCGCUGUCCUAUCU | 102 | 100 | 107 | 98.8 | 87
16 | UGAUUGCCAGUGAUGUUGGCAGUGACUGAAGGAGCGCGUGAAAACGCAGGUAGGUCGCAGUUGAGUGCCAAUUGAUCGAAAGAUC [KL-XArg-A5] | 286 | 275 | 244 | 328 | 249
17 | UGAUUGGCGAAAGUAGUGAUGUUACGAACAUAGGAUAUUAGAGGAAUAAGAAGGAUGAAUGAGAAAGGAAUAAAUUGUUGGUUGG [#08 K4 FMN A Same State] | 139 | 64 | 165 | 193 | 102
18 | UGCGCUGUGUACUGAAAUGUUAUGCGGGAUACCAGAGUCUUUUUAUUCCCUUGGCAGCUUGAGUGAUGUUUGAUGCCGUUCUUGU [po,,mmullin] | 490 | 256 | 548 | 577 | 418
19 | UGCGCUGUGUCCUGAAAUGUCCUCCGGGAUACCAGAGUCUUUUUAUUCCCUUGGCAGCUUGAGUGAUGUUUGAUGCCGUUCUUGU [yvvymullin] | 668 | 481 | 713 | 576 | 515
20 | UGCUUAGUGAUGUUUGAUUUGGUGCAUGCAGAGGAUAUAGGGUGCUUUAGAAGGCUGAGGAGUGCGCCGAGUGAUGUUCGGCGCU [Exclusion FMN A GF11] | 192 | 164 | 206 | 182 | 170
21 | UGGAGUUGACGAAAAGUCAACUCCCGAGAAGGAGCGGACGAAAGUCCAGGUAGGUCGCUCACUACCAGUGAUGUUGGUACUAAAA | 148 | 196 | 129 | 135 | 111
22 | UGGAGUUGACGAAAAGUCAACUCCUGAGAUACCAGUGACGAAAGUCACCCUUGGCAGCUCACUGCCAGUGAUGUUGGUAAAUAAA [#OpenEnded 3] | 78.1 | 92.5 | 159 | 568 | 81.8

Row | Sequence | apparent KD of K4 kissing-loop reporter (input ligand: FMN 200 uM) [nM] | apparent KD of K4 kissing-loop reporter (input ligand: arginine 13.2 mM) [nM] | apparent KD of K4 kissing-loop reporter (input ligand: none) [nM] | apparent KD of K4 kissing-loop reporter [1] [nM] | apparent KD of K4 kissing-loop reporter [2] [nM]
23 | UGGAGUUGACGAAAAGUCAACUCCUGGGAAGGAGCGGACGAAAGUCCAGGUAGGUCGCUCACUACCAGUGAUGUUGGUACUAAAA | 144 | 351 | 296 | 200 | 215
24 | UGGAUAUAGUGAUGUUAUAUAGAGAGUGAUACCAGUUUAGAGAAGAACCCUUGGCAGCAUAGAAGAGUAUCAUUGGAGAAGAAUG [ExTheophyl.Aq] | 243 | 193 | 242 | 181 | 155
25 | UGGGAUGGUUCGGCCGCCACUAUGGUGCAGUGAUGUUGCAUCGUAGUAAAUCAUUCCAUUUACCGUAGGACCGGGAACCUUACGC [Mavelege] | 108 | 82.7 | 94.9 | 83.4 | 86.2
26 | UGUACCGAGUCAGGAUAUCAACGACUGACAAAAGUCGGUCGAAUAUCCAGUGAUGUUGGAAAUAAAUGAGAAGGGACUUGGUACU [FmnBS 14 #SwitchBubble #StaticStem] | 125 | 258 | 276 | 264 | 265
27 | UGUACCGAGUCAGGAUAUCGCGUCGAAAGACGAAACGAGUGAUGUUCGAAUCGAUCGAAAGAUCGUCGAGAAGGGACUUGGUACU [FmnBS 22 #SwitchBubble #StaticStem #DoubleMagnetSystem] | 219 | 676 | 642 | 569 | 589
28 | UGUACCGAGUCAGGAUAUGGCGUCGAAAGACGAAUUCUAGUGAUGUUAGGGAUCUGCGAAAGCAGUCUAGAAGGGACUUGGUACU [FmnBS 26 U36+U68] | 356 | 407 | 508 | 684 | 512
29 | UGUAUAUGAUGUGAUACCAGUGAAGAGCCAGUGAUGUUGGUAGAACUGGUAUAUAAAUAACACCCUUGGCAGCACAAUCACGUAC [whbob_Ex_Theo_B_sa98] | 192 | 188 | 202 | 265 | 196
30 | UGUAUGUGAUUUGAUACCAGACCAGCUGAUGGAUCACGAGUGAUGUUCGUGUUGGUUUGGGUCCCUUGGCAGCAAAUCGCAUACU [KL-SSTheoB14] | 308 | 282 | 324 | 248 | 285
31 | UGUAUGUGAUUUGAUACCAGACCAGCUGGAGGAAUCUGAGUGAUGUUCAGGUAGGUUUGGGUCCCUUGGCAGCAAAUCGCAUACU [KL-SSTheoB17] | 251 | 196 | 236 | 192 | 209
32 | UGUAUGUGAUUUGAUACCAGACCAUCUUGUGAAUGAUGAGUGAUGUUUAUUAUGGUUUGGGUCCCUUGGCAGCAAAUCGCAUACU [KL-SSTheoB25] | 926 | 717 | 976 | 781 | 803
33 | UGUCAUGGAAACAUGAACGUUGAUGUUCGACGAGGACCGGUACGGCCGCCACUCGAGUAAUAGUCAGUGAUGUUGACUUGUCUAA [KL-SSTryp-A form1 sub3] | 74.2 | 107 | 91.8 | 131 | 76.5
34 | UGUCAUUGGUCGGCCGCCACUUCAAAAGGUCAAAGACCAGAGUGAUGUUCUUCACGAAACGUGAGAAGGACCGGGACCGAUGACU [TrypBS 12 #SwitchBubble #K4Middle] | 226 | 123 | 191 | 266 | 638
35 | UGUCAUUGGUCGGCCGCCACUUCAAGGUCAAAGACCAAAGAGUGAUGUUCUUAGACGAAAGUCAGAAGGACCGGGACCGAUGACU [TrypBS 9 #SwitchBubble #K4Middle] | 318 | 144 | 204 | 245 | 727
36 | UGUCAUUGGUCGGCCGCCACUUCAUAGAGAGUGAUGUUCUUAAAGACGGAUCGAAAGAUCUGUCGAAGGACCGGGACCGAUGACU [FiskerMod 9 - Jieux - Same State - Tryptophan B] | 997 | 676 | 1400 | 783 | 302
37 | UGUCAUUGGUCGGCCGCCACUUCGUGUAGAGUGAUGUUUUGUAGGACGGAUCGAAAGAUCUGUCGAAGGACCGGGACCGAUGACU [FiskerMod 18 - Jieux - Same State - Tryptophan B] | 500 | 189 | 459 | 336 | 1100
38 | UGUCUUCAGUGAUGUUGAUGACAACACUUAAAGGAUAUGCGAGAGAGCAGAAGGUUAAACAACGCGCAAAUCAAGGAGGGUCUAG [theeternabot_exclusion_KL_FMN_A_30] | 193 | 161 | 178 | 196 | 174
39 | UGUGAACAAAAGUAGAGUGGACCACUAUAGCGAGGACCGGUACGGCCGCCACUCGUGUAUGAAUUCAGUGAUGUUGAAAAGAGCU [whbob_EX_Tryp_A_t11] | 131 | 187 | 138 | 254 | 134
40 | UGUGCCAAAUGUGAUACCAGCUUCCUGCAGUGAUGUUGCAUACGAGUGAUGUUCGUCCGAGGCCCUUGGCAGCGCAGUCGUUUGA [Same State Theophylline B GF 27] | 450 | 442 | 528 | 437 | 352
41 | UGUGCCAACAGUGAUACCAGCGUGGAGUGAUGUUCCGAGGAUCGGAGUGAUGUUCCGAAGCGCCCUUGGCAGCGCAGAAGCGCGA [Exclusion Theophylline B GF 26] | 239 | 156 | 186 | 189 | 182
42 | UGUGUUGUUGUGAUGUUUAGUGUUGUUGGGCAGGAUAUCGUAGAGGCGAGAAGGGCUUGUGUGCUGUAUGAGUGAUGUUUGUAGG [xrrxmullin] | 372 | 238 | 428 | 262 | 322
43 | UGUGUUGUUUUGAUGUUUGGUGUAAGUUGGCAGGAUAUCGUAGAGGCGAGAAGGGCUUUUAUGCGUUAUGAGUGAUGUUUGUAGG [zrrzmullin] | 640 | 330 | 538 | 404 | 699
